Measurements reported in US11672826.
Read-outs that look alike come from different tables or passages of the source.

What was measured:
Assay in all cases: cell-based or functional assay
TGFβ1 (R&D systems) [1] = target: TGFβ1 (R&D systems) (UniProt P01137)
TGFβ1 (R&D systems) [2] = target: TGFβ1 (R&D systems) (UniProt P01137); remark: listed apart in the source
[3] = target: IL2Rβ and common γ chain on 32Dβ cells
IL2Rαβγ on CTLL2 cells = target: IL2Rαβγ on CTLL2 cells
[4] = target: IL2Rβ and common γ chain on 32Dβ cells; remark: listed apart in the source
[5] = target: IL2Rβ and common γ chain on 32Dβ cells; remark: listed apart in the source
IL-21R on B9 cells = target: IL-21R on B9 cells

Human recombinant TGFβRII/Fc, sequence (P37173 24-159): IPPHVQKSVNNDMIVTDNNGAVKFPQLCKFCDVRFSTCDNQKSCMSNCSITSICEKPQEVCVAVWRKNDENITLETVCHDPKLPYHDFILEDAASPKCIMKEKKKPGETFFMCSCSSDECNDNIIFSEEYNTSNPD
TGFβ1 (R&D systems), sequence (P01137 279-390 limits assumed): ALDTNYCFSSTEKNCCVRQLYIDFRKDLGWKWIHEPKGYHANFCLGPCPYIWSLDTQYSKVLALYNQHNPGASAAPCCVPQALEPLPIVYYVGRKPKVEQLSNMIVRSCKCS

## Human recombinant TGFβRII/Fc (from UniProt P37173 24-159) (Fc fusion)
TGFβ1 (R&D systems) [1]
  IC50, TGFβ1 activity in HEK-Blue TGFβ reporter cells: 461 pM
TGFβ1 (R&D systems) [2]
  IC50, TGFβ1 activity in HEK-Blue TGFβ reporter cells: 559 pM

## recombinant IL-2 (from UniProt P60568 21-153) (ligand)
[3]
  EC50 of 32Dβ cell proliferation (WST1): 140 pM
IL2Rαβγ on CTLL2 cells
  EC50 of CTLL-2 cell proliferation (WST1): 548 pM

## recombinant IL-15 (from UniProt P40933 49-162) (ligand)
[3]
  EC50 of 32Dβ cell proliferation (WST1): 1.6 pM
IL2Rαβγ on CTLL2 cells
  EC50 of CTLL2 cell proliferation (PrestoBlue): 4.95 pM
  EC50 of CTLL2 cell proliferation (WST1): 6.22 pM
[4]
  EC50 of 32Dβ cell proliferation (WST1): 10.6 pM
[5]
  EC50 of 32Dβ cell proliferation (WST1): 16.6 pM

## recombinant IL-21 (from UniProt Q9HBE4 32-162) (ligand)
IL-21R on B9 cells
  EC50 of B9 cell proliferation (WST1): 72600 pM
